PMC2120815

Biological target: cytoplasmic dynein intermediate chain (Xenopus laevis (endogenous in egg extract))
Experiment: co-IP

interphase/metaphase ratio of the amount brought down: 1.08
Substance: cytoplasmic dynein heavy chain (natural protein)
